In patent publication CN114028561A:

Target: 天然TSLP
Assay: cell-based or functional assay

IC50 of inhibition of natural TSLP-induced STAT5 phosphorylation in SW756-STAT5-Luciferase reporter cells: 1.45 ng/mL
Substance: Tezepelumab (antibody)
